In patent publication US20140186359A1 (TORAY INDUSTRIES, published 2014):

What was measured:
[1] = molecular target: T1, human CAPRIN-1 expressed on the surface of human cancer cells (human, UniProt Q14444 2-709); experiment: cell-based or functional assay
T1 sequence: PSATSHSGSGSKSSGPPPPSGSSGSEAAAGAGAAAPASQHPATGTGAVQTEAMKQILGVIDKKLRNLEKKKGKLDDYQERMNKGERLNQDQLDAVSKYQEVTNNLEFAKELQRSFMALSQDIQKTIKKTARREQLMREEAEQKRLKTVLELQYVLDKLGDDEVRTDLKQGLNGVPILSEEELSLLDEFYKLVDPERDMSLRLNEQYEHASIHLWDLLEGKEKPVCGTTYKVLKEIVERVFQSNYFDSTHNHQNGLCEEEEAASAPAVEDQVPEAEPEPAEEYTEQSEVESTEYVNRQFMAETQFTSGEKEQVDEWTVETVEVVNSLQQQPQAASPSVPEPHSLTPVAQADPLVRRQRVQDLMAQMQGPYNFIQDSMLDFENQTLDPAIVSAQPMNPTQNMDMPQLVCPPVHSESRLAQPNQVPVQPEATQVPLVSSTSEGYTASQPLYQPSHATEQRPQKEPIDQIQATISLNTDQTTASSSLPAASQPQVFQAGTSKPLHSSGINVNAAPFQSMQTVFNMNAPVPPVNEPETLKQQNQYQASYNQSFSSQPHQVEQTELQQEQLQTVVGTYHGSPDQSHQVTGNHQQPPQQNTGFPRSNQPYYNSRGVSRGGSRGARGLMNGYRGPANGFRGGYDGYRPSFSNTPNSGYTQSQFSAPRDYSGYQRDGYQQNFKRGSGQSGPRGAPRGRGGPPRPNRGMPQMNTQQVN

[2] = molecular target: T1, human CAPRIN-1 expressed on the surface …; experiment: flow cytometry on the listed human cancer cell lines, culture supernatant, against secondary antibody only
Procedure: 10⁶ cells of each cell line were centrifuged in each 1.5-ml microcentrifuge tube. Each culture supernatant (100 μl) containing any of the antibodies #1, #2, and #3 and the chicken monoclonal antibodies #1, #2, #3, and #4 was added to the tube and left to stand for 1 hour on ice. After washing with PBS, FITC-labeled goat anti-mouse IgG (H+L) antibodies (manufactured by Jackson ImmunoResearch Laboratories, Inc.) diluted with PBS containing 0.1% FBS for the mouse-derived antibodies or FITC-labeled goat anti-chicken IgG (H+L) antibodies (manufactured by SouthernBiotech) diluted 100-fold with PBS containing 0.1% FBS for the chicken-derived antibodies were added thereto and left to stand at 4° C. for 30 minutes. After washing with PBS, the fluorescence intensity was measured using FACSCalibur (Becton, Dickinson and Company). The negative control used was cells reacted only with secondary antibodies. As a result, all the cells each treated with any of the antibodies #1, #2, and #3 and the chicken monoclonal antibodies #1 to #4 had fluorescence intensity at least 35% stronger than that of the negative control. […] The rates of enhancement in the fluorescence intensity was expressed as the rates of increase in mean fluorescence intensity (MFI) in respective cell lines, which are calculated according to the following formula.

[3] = molecular target: T2, partial CAPRIN-1 polypeptide consisting of the amino acid sequence of SEQ ID NO: 5 (human); experiment: peptide ELISA, culture supernatant
T2 construct: Peptide coupled to Immobilizer Amino ELISA plate
T2 peptide: VFNMNAPVPPVNEPETLK
Procedure: The obtained mouse monoclonal antibodies #2 and #3 were examined for their specific reaction with the amino acid sequence of SEQ ID NO: 5 as a partial CAPRIN-1 sequence used as an immunogen. A 30 μg/ml solution of the amino acid sequence of SEQ ID NO: 5 prepared with a 0.1 M aqueous sodium carbonate solution and a partial CAPRIN-1 sequence free from the amino acid sequence of SEQ ID NO: 5 were each added to a 96-well plate Immobilizer Amino for ELISA (Nunc) at […] and reacted for one whole day and night at 4° C. to bind the peptides to the wells. A 0.1 M aqueous sodium carbonate solution containing 10 mM ethanolamine was added to the peptide-bound wells and left to stand at room temperature for 1 hour. The solution in each well was removed, and each well was then washed with PBS-T. Then, a Blockace solution was added thereto at 400 μl/well and left to stand at room temperature for 3 hours. The solution in each well was removed, and each well was washed with PBS-T. Then, the culture supernatant containing the mouse monoclonal antibody #2 was added thereto at […] and reacted at room temperature for 1 hour. […] The absorbance was measured at 450 nm and 595 nm using an absorption spectrometer.

B1: human-mouse chimeric comparative monoclonal antibody 10 (antibody, human IgG1, kappa)
heavy: not shown
light: RLPFYSLEQRATISYRASKNVSTSGYSYMHWNQQKPGQPPKLLIYLVSNLESGVPARFSGSGSGTDFTLNIHPVEEEDAATYYCQHIRELTRSELVPSWKSNTVAAPSVFIFPPSDEQLKSGTASVVCLLNNFYPREAKVQWKVDNALQSGNSQESVTEQDSKDSTYSLSSTLTLSKADYEKHKVYACEVTHQGLSSPVTKSFNRGEC
ADCC cytotoxic activity (51Cr release) against Caki-2 [1]: < 8%
ADCC cytotoxic activity (51Cr release) against HCT-116 [1]: < 3%
ADCC cytotoxic activity (51Cr release) against MCF7 [1]: < 5%
ADCC cytotoxic activity (51Cr release) against MIAPaCa-2 [1]: 7%
ADCC cytotoxic activity (51Cr release) against QG56 [1]: < 5%
ADCC cytotoxic activity (51Cr release) against all other cancer cell lines listed [1]: < 4%

B2: chicken monoclonal antibody #3 (antibody, V domains shown)
VH: AVTLDESGGGLQTPGGGLSLVCKGSGFTFSSFGMFWVRQAPGKGLEFVASISDNGRSTYYGSAVKGRATISRDDGQSTVRLQLNNLRAEDTGTYYCAKNAYVGRGCCFSYSIDAWGHGTEVIVS
VL: ALTQPASVSVNPGETVKITCSGGGSSSDAYGWYQQKSPGSAPVTLIYNGSNRPSHIPSRFSGSTSGSTNTLTITGVQVEDEAIYFCGSTDTSTSVGIFGAGTTLTV
notes: Chicken hybridoma antibody; also called anti-CAPRIN-1 chicken monoclonal antibody #3
rate of increase in mean fluorescence intensity [2]: ≥ 35%

B3: mouse monoclonal antibody #2 (antibody, V domains shown)
VH: GGGLVKPGGSLKLSCAASGFTFSSYGMSWVRQTPEKRLEWVATISSGGSYTYYPDSVKGRFTISRDNAKNTLYLQMSSLRSEDTAMYYCASLASYYFDYWGQGTTLTVSS
VL: DVQMIQSPSSLSASLGDIVTMTCQASQGTSINLNWFQQKPGKAPKLLIYGASSLEDGVPSRFSGSCFGTDFTLTISSLEDEDMATYFCLQHSYLPPLTFGAGTKLELKR
notes: Mouse hybridoma antibody; detected with anti-mouse IgG; also called anti-CAPRIN-1 monoclonal antibody #2
rate of increase in mean fluorescence intensity [2]: ≥ 35%

B4: mouse monoclonal antibody #3 (antibody, V domains shown)
VH: B3 VH
VL: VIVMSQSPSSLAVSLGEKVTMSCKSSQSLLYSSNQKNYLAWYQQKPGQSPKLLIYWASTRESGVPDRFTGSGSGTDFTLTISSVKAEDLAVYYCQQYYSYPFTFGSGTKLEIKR
notes: Mouse hybridoma antibody; detected with anti-mouse IgG; also called anti-CAPRIN-1 monoclonal antibody #3
binding result [3]: binds
rate of increase in mean fluorescence intensity [2]: ≥ 35%

B5: chicken monoclonal antibody #4 (antibody, V domains shown)
VH: AVTLDESGGGLQTPGGAVSLVCKGSGFTFSSYGMGWVRQAPGKGLEYVAAIRKDGSTNYGPAVKGRATISRDNGQSTVRLQLSNLRAEDTATYYCAKRSHTGVNAAKIDAWGRGTEVIVS
VL: ALTQPASVSANPGETVKITCSGASHNYGWFQQKSPGSAPVTVIYSNDKRPSDIPSRFSGSKSGSTATLTITGVQADDEAVYFCGGYNIYGPTFGAGTTLTV
notes: Chicken hybridoma antibody; also called anti-CAPRIN-1 chicken monoclonal antibody #4
rate of increase in mean fluorescence intensity [2]: ≥ 35%

B6: mouse monoclonal antibody #1 (antibody, V domains shown)
VH: GPGLVQPSQSLSITCTVSGFSLTTYDLHWVRQSPGKGLEWLGVIWSGGSTDYNAAFISRLSISKDNSKSQVFFKMNSLQANDTAIYYCARNYGYSAWFAYWGQGTLVTVSA
VL: DVLMTQTPLSLPVSLGDQASISCRSSQSIVHSNGNTYLEWYLQKPGQSPKLLIYKVSNRFSGVPDRFSGSGSGTDFTLKISRVEAEDLGVYYCFQGSHVPLTFGAGTKLELKR
notes: Mouse hybridoma antibody; detected with anti-mouse IgG; also called anti-CAPRIN-1 monoclonal antibody #1
rate of increase in mean fluorescence intensity [2]: ≥ 35%

B7: chicken monoclonal antibody #1 (antibody, V domains shown)
VH: AVTLDESGGGLQTPGGALSLVCKASGFTFRSHSMFWVRQAPGKGLEYVAGIYGVGRSIRYGSAVKGRATMSRDNGQSTVRLQLNNLRAEDTATYYCAKSGYFSNSRYWDSGAYFIDAWGHGTEVIVS
VL: ALTQPASVSANPGETVEITCSGGYSNYGWYQQKSPGSAPVTVIYYNDKRPSDIPSRFSGSKSGSTATLTITGVQAEDEAVYFCGGYDSSTDAGIFGAGTTLTV
notes: Chicken hybridoma antibody; also called anti-CAPRIN-1 chicken monoclonal antibody #1
rate of increase in mean fluorescence intensity [2]: ≥ 35%
